Target: T1, BnaA01G0374400ZS (MYB TF, ortholog of AT3G11280) (Brassica napus (ZS11), UniProt A0A078HEX6 1-259)
T1 sequence: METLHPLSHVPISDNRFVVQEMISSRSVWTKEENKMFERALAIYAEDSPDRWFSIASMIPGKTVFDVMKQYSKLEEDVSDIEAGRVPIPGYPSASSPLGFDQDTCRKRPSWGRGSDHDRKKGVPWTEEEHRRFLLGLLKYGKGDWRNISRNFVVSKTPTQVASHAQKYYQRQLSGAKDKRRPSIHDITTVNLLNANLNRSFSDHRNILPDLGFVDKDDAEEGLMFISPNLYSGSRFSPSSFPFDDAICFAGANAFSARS
Assay: EMSA; Beyotime GS009 EMSA kit, room temperature, 20 min, 5% native polyacrylamide gel, chemiluminescent detection; buffer, salt and pH not stated
Conditions: protein: recombinant; tags: His; label: biotin; blunt

B1: M2 (M1 with all C nucleotides mutated) (dsDNA)
DNA 1: TTTTTTTATTTATATTAAATTTATT
DNA 2: AATAAATTTAATATAAATAAAAAAA
- binding result: no binding
